Results on five molecules are retold here after patent US20250368754A1 (KANAPH THERAPEUTICS, published 2025).

Experiment [1] deals with T1, human FAP on HEK293-hFAP cells (human, UniProt Q12884 1-760).
T1 construct: whole, on cells; also called human FAP-expressing cell line
T1 sequence (looked up): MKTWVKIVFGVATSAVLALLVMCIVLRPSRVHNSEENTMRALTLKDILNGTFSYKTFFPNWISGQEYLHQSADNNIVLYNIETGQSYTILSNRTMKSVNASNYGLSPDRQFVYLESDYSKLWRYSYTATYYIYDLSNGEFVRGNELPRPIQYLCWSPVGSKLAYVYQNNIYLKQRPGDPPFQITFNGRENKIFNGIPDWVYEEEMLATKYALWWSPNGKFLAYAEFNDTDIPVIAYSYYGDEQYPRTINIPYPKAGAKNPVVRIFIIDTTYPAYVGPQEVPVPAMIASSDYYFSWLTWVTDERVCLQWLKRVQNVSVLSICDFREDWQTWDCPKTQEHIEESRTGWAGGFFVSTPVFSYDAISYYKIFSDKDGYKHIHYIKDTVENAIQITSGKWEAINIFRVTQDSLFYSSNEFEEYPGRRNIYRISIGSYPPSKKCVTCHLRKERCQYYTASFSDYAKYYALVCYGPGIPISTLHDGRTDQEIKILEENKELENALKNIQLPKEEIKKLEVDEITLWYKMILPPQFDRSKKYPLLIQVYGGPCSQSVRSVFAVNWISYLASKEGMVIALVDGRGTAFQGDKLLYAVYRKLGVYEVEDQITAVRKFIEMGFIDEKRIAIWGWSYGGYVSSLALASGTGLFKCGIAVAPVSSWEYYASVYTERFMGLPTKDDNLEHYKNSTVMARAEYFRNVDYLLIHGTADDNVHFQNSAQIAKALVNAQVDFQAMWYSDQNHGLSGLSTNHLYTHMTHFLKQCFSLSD
The experiment in a line: flow cytometry on HEK293-hFAP cells, 1 µg protein, anti-human IgG detection. As for the experimental part:
(§1) Specifically, the cell line was prepared by suspending in a FACS buffer solution at 1×10⁵ cells/100 μL, and treated with 1 μg each of T3.10, T3.01, T3.05, T3.06, T3.14, and T3.18. The cells were washed twice with a FACS buffer solution. The cells were stained with an anti-human IgG antibody (Biolegend). The negative control sample was stained only with an anti-human IgG antibody (Biolegend). The expression ratio of the stained cells was measured using BD LSR and analyzed using FlowJo software.
(In general: In flow cytometry, cells or beads pass a laser one at a time.)

Experiment [2] addresses T1, human FAP on HEK293-hFAP cells. The experiment in a line: flow cytometry on HEK293-hFAP cells, 1 ug protein per 1x10^5 cells, anti-human IgG detection (axis TMEkine-PE). As for the experimental part:
as §1

For experiment [3], the target named is T2, recombinant human herpes virus entry mediator (HVEM) (human, UniProt Q92956 39-202).
T2 construct: neither construct is described; also called human HVEM; recombinant human HVEM protein (R&D systems)
T2 sequence (looked up): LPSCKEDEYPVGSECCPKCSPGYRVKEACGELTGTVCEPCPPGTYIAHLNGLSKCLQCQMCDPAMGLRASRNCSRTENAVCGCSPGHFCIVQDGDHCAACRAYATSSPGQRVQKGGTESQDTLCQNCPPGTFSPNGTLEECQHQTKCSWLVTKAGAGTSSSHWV
The experiment is described as follows: sandwich ELISA: plate coated with recombinant human HVEM 1 ug/mL, fusion protein from 1 nM in serial dilution, detected with biotinylated recombinant human FAP and streptavidin conjugate, OD 450 nm. Here is the method: Considering that LIGHT of the fusion protein must bind to the herpes virus entry mediator (HVEM) for the action, it was confirmed that T3.01 binds to the recombinant human HVEM, as follows: [0370] (i) The recombinant human HVEM protein (R&D systems) was suspended at 1 μg/mL, dispensed in a 96-well immune plate, and treated for 24 hours. [0371] (ii) The wells were washed with a wash solution, and then blocking was performed for 1 hour with 1% BSA (bovine serum albumin, Sigma) solution. [0372] (iii) The wells were washed with a wash solution, and then T3.01, T3.14, T3.16, T3.17, T3.18 and T3.10, or T3.05, T3.06, T3.04, T3.14 and T3.10 were suspended at 1 nM and diluted by serial dilution. The wells were treated with the diluted T3.01, T3.14, T3.16, T3.17, T3.18 and T3.10, or T3.05, T3.06, T3.04, T3.14 and T3.10 for 2 hours. [0373] (iv) The wells were washed with a wash solution, and then treated with the human recombinant FAP-biotin diluted at 0.5 μg/mL for 2 hours. [0374] (v) The wells were washed with a wash solution, and then treated with streptavidin-RP for 20 minutes. [0375] (vi) The wells were washed with a wash solution, and then treated with a substrate solution for 20 minutes. [0376] (vii) The wells were treated with a stop solution, and the absorbance was measured at 450 nm.
A general note: In an ELISA, binding on a coated surface is turned into a signal by an enzyme label.

For another experiment, the target named is human LTβR on A375 cells (human, UniProt P36941 31-435). The experiment in a line: cell-based or functional assay.
human LTβR on A375 cells, sequence (P36941 31-435): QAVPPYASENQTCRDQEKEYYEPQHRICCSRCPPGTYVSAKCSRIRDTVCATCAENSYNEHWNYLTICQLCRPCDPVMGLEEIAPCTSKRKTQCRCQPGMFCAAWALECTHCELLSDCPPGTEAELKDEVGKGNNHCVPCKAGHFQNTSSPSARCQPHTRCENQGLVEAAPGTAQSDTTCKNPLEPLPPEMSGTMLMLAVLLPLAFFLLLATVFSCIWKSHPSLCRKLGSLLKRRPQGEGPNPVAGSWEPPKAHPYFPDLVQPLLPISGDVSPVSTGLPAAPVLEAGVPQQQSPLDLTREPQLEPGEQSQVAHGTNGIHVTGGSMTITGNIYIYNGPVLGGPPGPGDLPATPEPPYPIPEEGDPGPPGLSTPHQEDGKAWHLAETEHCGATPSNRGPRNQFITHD

B1: T3.06 (anti-hu FAP/hu scLIGHT3(195-198), hu IgG1 DANG) (bispecific antibody)
heavy: QVQLVQSGAEVKKPGASVKVSCKTSRYTFTEYTIHWVRQAPGQRLEWIGGINPNNGIPNYNQKFKGRVTITVDTSASTAYMELSSLRSEDTAVYYCARRRIAYGYDEGHAMDYWGQGTLVTVSSASTKGPSVFPLAPSSKSTSGGTAALGCLVKDYFPEPVTVSWNSGALTSGVHTFPAVLQSSGLYSLSSVVTVPSSSLGTQTYICNVNHKPSNTKVDKKVEPKSCDKTHTCPPCPAPELLGGPSVFLFPPKPKDTLMISRTPEVTCVVVAVSHEDPEVKFNWYVDGVEVHNAKTKPREEQYGSTYRVVSVLTVLHQDWLNGKEYKCKVSNKALPAPIEKTISKAKGQPREPQVYTLPPSRDELTKNQVSLWCLVKGFYPSDIAVEWESNGQPENNYKTTPPVLDSDGSFFLYSKLTVDKSRWQQGNVFSCSVMHEALHNHYTQKSLSLSPGK
light: not shown
chain: not shown
notes: Knob-into-hole
In the case of B1, the “percent of cells bound” value in experiment [1] is no less than 99%. For the same molecule, in experiment [2], the “percent of cells in the positive gate” value is 100%.

B2: T3.05 (anti-hu FAP/hu scLIGHT3(226-231), hu IgG1 DANG) (bispecific antibody)
heavy: QVQLVQSGAEVKKPGASVKVSCKTSRYTFTEYTIHWVRQAPGQRLEWIGGINPNNGIPNYNQKFKGRVTITVDTSASTAYMELSSLRSEDTAVYYCARRRIAYGYDEGHAMDYWGQGTLVTVSSASTKGPSVFPLAPSSKSTSGGTAALGCLVKDYFPEPVTVSWNSGALTSGVHTFPAVLQSSGLYSLSSVVTVPSSSLGTQTYICNVNHKPSNTKVDKKVEPKSCDKTHTCPPCPAPELLGGPSVFLFPPKPKDTLMISRTPEVTCVVVAVSHEDPEVKFNWYVDGVEVHNAKTKPREEQYGSTYRVVSVLTVLHQDWLNGKEYKCKVSNKALPAPIEKTISKAKGQPREPQVYTLPPSRDELTKNQVSLWCLVKGFYPSDIAVEWESNGQPENNYKTTPPVLDSDGSFFLYSKLTVDKSRWQQGNVFSCSVMHEALHNHYTQKSLSLSPGK
light: not shown
chain: not shown
notes: Knob-into-hole
Turning to B2, the “percent of cells bound” value in experiment [1] was no less than 99%. Further, the “percent of cells in the positive gate” value in experiment [2] stood at 99.8%. Moreover, in experiment [3], the binding result is “no binding (tested: 1000 pM)”.

B3: T3.15 (anti-hu FAP/hu scLIGHT-LIGHT(L118K, G119E)2, hu IgG1 DANG) (bispecific antibody)
heavy: QVQLVQSGAEVKKPGASVKVSCKTSRYTFTEYTIHWVRQAPGQRLEWIGGINPNNGIPNYNQKFKGRVTITVDTSASTAYMELSSLRSEDTAVYYCARRRIAYGYDEGHAMDYWGQGTLVTVSSASTKGPSVFPLAPSSKSTSGGTAALGCLVKDYFPEPVTVSWNSGALTSGVHTFPAVLQSSGLYSLSSVVTVPSSSLGTQTYICNVNHKPSNTKVDKKVEPKSCDKTHTCPPCPAPELLGGPSVFLFPPKPKDTLMISRTPEVTCVVVAVSHEDPEVKFNWYVDGVEVHNAKTKPREEQYGSTYRVVSVLTVLHQDWLNGKEYKCKVSNKALPAPIEKTISKAKGQPREPQVYTLPPSRDELTKNQVSLWCLVKGFYPSDIAVEWESNGQPENNYKTTPPVLDSDGSFFLYSKLTVDKSRWQQGNVFSCSVMHEALHNHYTQKSLSLSPGK
light: not shown
chain: not shown
For the molecule B3, in the experiment with human LTβR on A375 cells, the “IL-8 secretion of A375 cells, EC50 (FIG. 15a)” value was determined as 3.79 nM.

B4: T3.16 (anti-hu FAP/hu scLIGHT(226-231)-LTb2, hu IgG1 DANG) (bispecific antibody)
heavy: QVQLVQSGAEVKKPGASVKVSCKTSRYTFTEYTIHWVRQAPGQRLEWIGGINPNNGIPNYNQKFKGRVTITVDTSASTAYMELSSLRSEDTAVYYCARRRIAYGYDEGHAMDYWGQGTLVTVSSASTKGPSVFPLAPSSKSTSGGTAALGCLVKDYFPEPVTVSWNSGALTSGVHTFPAVLQSSGLYSLSSVVTVPSSSLGTQTYICNVNHKPSNTKVDKKVEPKSCDKTHTCPPCPAPELLGGPSVFLFPPKPKDTLMISRTPEVTCVVVAVSHEDPEVKFNWYVDGVEVHNAKTKPREEQYGSTYRVVSVLTVLHQDWLNGKEYKCKVSNKALPAPIEKTISKAKGQPREPQVYTLPPSRDELTKNQVSLWCLVKGFYPSDIAVEWESNGQPENNYKTTPPVLDSDGSFFLYSKLTVDKSRWQQGNVFSCSVMHEALHNHYTQKSLSLSPGK
light: not shown
chain: not shown
notes: Knob-into-hole
For B4, the binding result in experiment [3] is recorded as “no binding (tested: 1000 pM)”.

B5: T3.17 (anti-hu FAP/hu scLIGHT(195-198)-LTb2, hu IgG1 DANG) (bispecific antibody)
heavy: QVQLVQSGAEVKKPGASVKVSCKTSRYTFTEYTIHWVRQAPGQRLEWIGGINPNNGIPNYNQKFKGRVTITVDTSASTAYMELSSLRSEDTAVYYCARRRIAYGYDEGHAMDYWGQGTLVTVSSASTKGPSVFPLAPSSKSTSGGTAALGCLVKDYFPEPVTVSWNSGALTSGVHTFPAVLQSSGLYSLSSVVTVPSSSLGTQTYICNVNHKPSNTKVDKKVEPKSCDKTHTCPPCPAPELLGGPSVFLFPPKPKDTLMISRTPEVTCVVVAVSHEDPEVKFNWYVDGVEVHNAKTKPREEQYGSTYRVVSVLTVLHQDWLNGKEYKCKVSNKALPAPIEKTISKAKGQPREPQVYTLPPSRDELTKNQVSLWCLVKGFYPSDIAVEWESNGQPENNYKTTPPVLDSDGSFFLYSKLTVDKSRWQQGNVFSCSVMHEALHNHYTQKSLSLSPGK
light: not shown
chain: not shown
notes: Knob-into-hole
On to B5, for which, in experiment [3], the binding result is on record as “no binding (tested: 1000 pM)”.
